The values below come from patent US20150010572A1 (SAMSUNG ELECTRONICS, published 2015).

Test [1] addresses T1, Ang-2 (R&D systems; 623-AN-025/CF) (human, UniProt O15123 19-496).
T1 sequence: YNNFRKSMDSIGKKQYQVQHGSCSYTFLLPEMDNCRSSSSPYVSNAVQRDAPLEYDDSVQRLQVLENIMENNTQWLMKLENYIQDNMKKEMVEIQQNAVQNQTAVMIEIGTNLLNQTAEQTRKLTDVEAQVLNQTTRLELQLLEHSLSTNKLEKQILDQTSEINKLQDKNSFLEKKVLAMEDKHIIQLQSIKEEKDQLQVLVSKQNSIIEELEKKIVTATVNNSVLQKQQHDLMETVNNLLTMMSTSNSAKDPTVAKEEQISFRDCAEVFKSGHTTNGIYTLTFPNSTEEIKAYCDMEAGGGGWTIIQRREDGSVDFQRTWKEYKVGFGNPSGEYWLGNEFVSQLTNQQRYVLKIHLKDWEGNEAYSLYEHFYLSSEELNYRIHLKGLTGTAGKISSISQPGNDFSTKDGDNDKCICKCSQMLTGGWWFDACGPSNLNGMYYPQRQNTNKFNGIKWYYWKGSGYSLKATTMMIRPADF
Put plainly: cell-based or functional assay.

The target in test [2] is mutant Ang-2 protein, A449 substituted with alanine (FLAG-tagged at N-terminal) (human) (UniProt O15123). Description: ELISA, antibody coated, 250 ng FLAG-tagged mutant Ang-2, anti-FLAG-HRP, OD450 relative to native Ang-2.
The target in test [3] is T2, integrin alphaVbeta3 (R&D systems) (human, UniProt P06756 31-992; P05106 27-718).
T2 construct: Bought heterodimer coated on an ELISA plate; also called αVβ3; purified alphaVbeta3 protein
Put plainly: ELISA, integrin coated at 5 ug/ml, FLAG-Ang-2 10 ug/ml, anti-FLAG-HRP. The method, then: (§1) An ELISA plate was coated with diluting solutions of three kinds of integrin (integrin; alpha5beta1 (α5β1; α5: NCBI Accession No. P08648, β1: NCBI Accession No. P05556), alphaVbeta1 (αVβ1; αV: NCBI Accession No. P06756, β1: NCBI Accession No. P05556), and alphaVbeta3 (αVβ3; αV: NCBI Accession No. P06756, β3: NCBI Accession No. P05106); R&D systems) proteins diluted in PBS at a concentration of 5 μg/ml (18 hours, 4° C.) and then blocked with 1% (v/v) BSA at a room temperature for 1 hour. Thereafter, the plate was treated with Ang-2 protein (FLAG-Ang-2, 0.1 ml of Ang-2 protein solution diluted in PBS at a concentration of 10 μg/ml) tagged with a FLAG sequence ([…], Sigma) at N-terminal, incubated at a room temperature for 2 hours, and washed five times with 0.05% PBST (0.05% (v/v) Tween-20-containing phosphate buffer saline). After that, an anti-FLAG antibody (Sigma) conjugated with horseradish peroxidase (HRP) was added to react, and the plate was washed again five times with PBST. Bindings between Ang-2 and the three kinds of integrins were identified indirectly by measuring the amounts of the anti-FLAG antibody remaining in the ELISA plate via color development reaction using TMB (3,3,5,5-tetramethylbenzidine) as a substrate of HRP. As a negative control, those that were blocked only (treated with BSA only) without Ang-2 protein treatment were used.

The target in test [4] is T3, integrin alpha5beta1 (R&D systems) (human, UniProt P08648 42-995; P05556 21-728).
T3 construct: Bought heterodimer coated on an ELISA plate; also called α5β1
The description is as above. As for the experimental part: as §1

Test [5] addresses T4, integrin alphaVbeta1 (R&D systems) (human, UniProt P06756 31-992; P05556 21-728).
T4 construct: Bought heterodimer coated on an ELISA plate; also called αVβ1
The description is as above. The method, then:
as §1

T2 sequence (P06756 31-992 limits assumed, chain 1 of 2): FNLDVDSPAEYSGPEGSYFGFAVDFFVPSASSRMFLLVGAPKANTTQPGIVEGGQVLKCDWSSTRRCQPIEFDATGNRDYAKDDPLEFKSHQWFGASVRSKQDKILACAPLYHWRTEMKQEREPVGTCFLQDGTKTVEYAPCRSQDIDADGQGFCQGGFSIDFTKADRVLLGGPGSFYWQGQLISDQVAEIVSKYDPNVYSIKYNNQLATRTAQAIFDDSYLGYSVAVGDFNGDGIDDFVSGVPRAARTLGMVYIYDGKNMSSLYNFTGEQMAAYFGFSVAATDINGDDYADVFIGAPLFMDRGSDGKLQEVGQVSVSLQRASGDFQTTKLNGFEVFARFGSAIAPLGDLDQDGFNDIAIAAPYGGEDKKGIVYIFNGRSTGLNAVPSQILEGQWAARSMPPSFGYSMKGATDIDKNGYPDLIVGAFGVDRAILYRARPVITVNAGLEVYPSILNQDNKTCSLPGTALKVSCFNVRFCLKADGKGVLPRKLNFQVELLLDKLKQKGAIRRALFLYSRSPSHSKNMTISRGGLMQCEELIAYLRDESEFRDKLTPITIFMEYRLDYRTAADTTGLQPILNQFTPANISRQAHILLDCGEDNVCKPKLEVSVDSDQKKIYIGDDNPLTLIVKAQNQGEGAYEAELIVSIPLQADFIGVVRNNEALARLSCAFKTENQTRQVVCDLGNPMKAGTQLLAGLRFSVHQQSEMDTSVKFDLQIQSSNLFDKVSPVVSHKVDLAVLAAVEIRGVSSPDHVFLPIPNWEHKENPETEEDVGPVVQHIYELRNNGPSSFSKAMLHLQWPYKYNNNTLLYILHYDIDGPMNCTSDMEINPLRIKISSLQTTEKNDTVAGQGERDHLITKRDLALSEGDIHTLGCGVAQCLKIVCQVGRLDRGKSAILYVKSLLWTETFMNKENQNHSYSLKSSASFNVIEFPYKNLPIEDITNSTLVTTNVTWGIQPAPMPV
T2 sequence (P05106 27-718 limits assumed, chain 2 of 2): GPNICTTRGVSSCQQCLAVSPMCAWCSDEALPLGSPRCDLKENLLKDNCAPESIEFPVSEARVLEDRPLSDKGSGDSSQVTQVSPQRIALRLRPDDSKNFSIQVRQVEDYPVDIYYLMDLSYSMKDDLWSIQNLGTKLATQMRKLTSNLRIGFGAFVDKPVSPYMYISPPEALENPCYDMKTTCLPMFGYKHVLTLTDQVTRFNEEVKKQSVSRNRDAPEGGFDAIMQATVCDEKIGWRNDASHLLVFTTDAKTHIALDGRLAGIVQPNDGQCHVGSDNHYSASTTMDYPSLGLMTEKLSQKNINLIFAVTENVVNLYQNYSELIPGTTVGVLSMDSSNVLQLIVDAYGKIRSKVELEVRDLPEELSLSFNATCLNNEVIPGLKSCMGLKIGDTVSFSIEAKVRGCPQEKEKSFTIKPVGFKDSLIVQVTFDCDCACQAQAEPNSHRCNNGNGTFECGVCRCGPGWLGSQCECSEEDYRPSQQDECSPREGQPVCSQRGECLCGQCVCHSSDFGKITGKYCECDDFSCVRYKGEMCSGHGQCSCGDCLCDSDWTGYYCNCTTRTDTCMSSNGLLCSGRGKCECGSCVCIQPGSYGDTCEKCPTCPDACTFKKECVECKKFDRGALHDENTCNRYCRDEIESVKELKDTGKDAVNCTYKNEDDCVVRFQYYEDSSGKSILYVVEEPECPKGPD
T4 sequence (P06756 31-992 limits assumed, chain 1 of 2): as the sequence (P06756 31-992 limits assumed, chain 1 of 2) above
T4 sequence (P05556 21-728 limits assumed, chain 2 of 2): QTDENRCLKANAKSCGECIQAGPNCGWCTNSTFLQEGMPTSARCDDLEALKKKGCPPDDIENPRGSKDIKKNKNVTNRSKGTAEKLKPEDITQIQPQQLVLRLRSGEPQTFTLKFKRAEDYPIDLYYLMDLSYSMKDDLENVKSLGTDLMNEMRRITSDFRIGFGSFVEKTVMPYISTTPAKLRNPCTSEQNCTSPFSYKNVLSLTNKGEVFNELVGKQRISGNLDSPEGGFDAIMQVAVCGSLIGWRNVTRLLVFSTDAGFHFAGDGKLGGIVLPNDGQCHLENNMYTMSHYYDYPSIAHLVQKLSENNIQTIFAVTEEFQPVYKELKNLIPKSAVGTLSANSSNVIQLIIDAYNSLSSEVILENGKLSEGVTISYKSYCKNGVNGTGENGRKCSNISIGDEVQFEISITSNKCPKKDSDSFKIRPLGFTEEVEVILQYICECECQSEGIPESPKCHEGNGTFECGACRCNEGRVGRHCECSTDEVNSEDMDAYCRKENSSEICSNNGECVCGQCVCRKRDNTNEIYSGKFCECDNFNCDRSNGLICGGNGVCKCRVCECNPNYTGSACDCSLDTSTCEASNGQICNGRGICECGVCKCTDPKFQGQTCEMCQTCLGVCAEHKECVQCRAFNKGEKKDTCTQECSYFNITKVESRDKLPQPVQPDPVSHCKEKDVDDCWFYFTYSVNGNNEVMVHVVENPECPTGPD
T3 sequence (P08648 42-995 limits assumed, chain 1 of 2): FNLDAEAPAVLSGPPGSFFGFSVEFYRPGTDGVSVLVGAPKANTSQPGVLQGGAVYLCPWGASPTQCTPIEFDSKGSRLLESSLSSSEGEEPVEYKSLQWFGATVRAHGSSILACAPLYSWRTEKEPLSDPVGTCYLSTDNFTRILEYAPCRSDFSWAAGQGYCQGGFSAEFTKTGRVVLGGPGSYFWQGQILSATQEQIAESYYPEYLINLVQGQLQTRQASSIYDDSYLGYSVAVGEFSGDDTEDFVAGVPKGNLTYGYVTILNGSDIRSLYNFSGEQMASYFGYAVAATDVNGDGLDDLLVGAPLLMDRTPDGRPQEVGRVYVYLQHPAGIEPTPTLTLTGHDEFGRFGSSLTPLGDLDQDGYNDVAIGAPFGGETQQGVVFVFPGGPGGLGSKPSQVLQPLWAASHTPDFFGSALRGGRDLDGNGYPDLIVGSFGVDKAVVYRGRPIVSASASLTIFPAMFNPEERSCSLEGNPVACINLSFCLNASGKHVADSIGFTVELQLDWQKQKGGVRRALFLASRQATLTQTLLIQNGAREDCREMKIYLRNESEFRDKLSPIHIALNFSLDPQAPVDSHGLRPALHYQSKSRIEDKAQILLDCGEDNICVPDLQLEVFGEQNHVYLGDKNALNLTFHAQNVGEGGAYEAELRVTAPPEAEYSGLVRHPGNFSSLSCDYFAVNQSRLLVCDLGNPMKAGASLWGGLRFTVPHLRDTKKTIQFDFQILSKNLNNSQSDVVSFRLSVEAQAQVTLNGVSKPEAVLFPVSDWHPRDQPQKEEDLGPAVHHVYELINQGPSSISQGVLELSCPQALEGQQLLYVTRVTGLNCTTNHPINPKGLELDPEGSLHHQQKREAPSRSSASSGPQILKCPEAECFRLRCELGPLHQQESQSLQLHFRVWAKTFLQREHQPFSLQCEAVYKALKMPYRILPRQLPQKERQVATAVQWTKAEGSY
T3 sequence (P05556 21-728 limits assumed, chain 2 of 2): as the sequence (P05556 21-728 limits assumed, chain 2 of 2) above

B1: SAIT-Ang-2-AB-m7F8 (antibody, V domains shown)
VH: DVQLQESGPGLVKPSQSLSLTCTVTGYSITSDYAWNWIRQFPGNKLEWMGYISYSGSTSYNPSLKSRISITRDTSKNQFFLQLNSVTPEDTATYYCARSTFGHYVSSMDYWGQGTSVTVSS
VL: SIVMTQTPKLLLVSAGDRVTITCKASQSASNDVAWYQQKPGQSPKLLIYYASNRYTGVPDRFTGSGYGTDFTFAISTVQAEDLAIYFCQQDYSSPPTFGGGTKLEIK
Take B1: the “Ang-2-depedent Cell Adhesion Degree (%)” value in test [1] was found to be 35.1%. The same molecule returned a % at RBD binding (mutant Ang-2 against native Ang-2) in test [2] of 94.1%.

B2: FLAG-tagged hAng-2 (ligand)
chain: DYKDDDDKYNNFRKSMDSIGKKQYQVQHGSCSYTFLLPEMDNCRSSSSPYVSNAVQRDAPLEYDDSVQRLQVLENIMENNTQWLMKLENYIQDNMKKEMVEIQQNAVQNQTAVMIEIGTNLLNQTAEQTRKLTDVEAQVLNQTTRLELQLLEHSLSTNKLEKQILDQTSEINKLQDKNSFLEKKVLAMEDKHIIQLQSIKEEKDQLQVLVSKQNSIIEELEKKIVTATVNNSVLQKQQHDLMETVNNLLTMMSTSNSAKDPTVAKEEQISFRDCAEVFKSGHTTNGIYTLTFPNSTEEIKAYCDMEAGGGGWTIIQRREDGSVDFQRTWKEYKVGFGNPSGEYWLGNEFVSQLTNQQRYVLKIHLKDWEGNEAYSLYEHFYLSSEELNYRIHLKGLTGTAGKISSISQPGNDFSTKDGDNDKCICKCSQMLTGGWWFDACGPSNLNGMYYPQRQNTNKFNGIKWYYWKGSGYSLKATTMMIRPADF
notes: also called FLAG-Ang-2
As for B2, the binding result in test [3], in test [4] and in test [5] was “binds” each time.
